Legend:
L. lactis IL1403 = test: Antimicrobial activity (halo of inhibition on petri dishes) of cell-free produced, intein-circularized bacteriocins against indicator L. lactis IL1403; format: cell-based, Lactococcus lactis; parameters: key: +: Bacteriocins showing a halo of inhibition against at least one of the indicators were considered as positive; settings: bacteriocins circularized with inteins; cell free production and overnight incubation at room temperature
Protocol: (§1) Recombinant vectors were stabilized and amplified in E. coli DH5a standard strain and used as templates for cell-free protein synthesis using PURExpress® in vitro Protein Synthesis Kit (New England Biolabs). All bacteriocins synthesized were tested on petri dishes for antimicrobial activity against an indicator strain. Bacteriocins showing a halo of inhibition against at least one of the indicators were considered as positive.
(§2) Following the same scheme as for GarML, different plasmids containing genes coding for recombinant proteins containing Npu IC and IN fused to the mature amino acid sequence of different known and hypothetical circular bacteriocins were synthesized. The circularization point for all of them was changed with respect to the native peptides so they all would start with a Ser in position 1 (Table 2.1). The Ssra tag was also added to the C-terminus. […] Plasmids synthesized were used as templates for cell free protein production. Antimicrobial activity of the peptides obtained after cell free production and overnight incubation at room temperature were tested against indicator L. lactis IL1403.

P. pentosaceus HELA = test: Antimicrobial activity (halo of inhibition on petri dishes) of cell-free produced, intein-circularized bacteriocins against indicator P. pentosaceus HELA; format: cell-based; parameters: key: +: Bacteriocins showing a halo of inhibition against at least one of the indicators were considered as positive; settings: bacteriocins circularized with inteins; cell free production
Protocol: as §1, §2

L. inocua = test: Antimicrobial activity (halo of inhibition on petri dishes) of cell-free produced, intein-circularized bacteriocins against indicator L. inocua; format: cell-based; parameters: key: +: Bacteriocins showing a halo of inhibition against at least one of the indicators were considered as positive; settings: bacteriocins circularized with inteins; cell free production
Protocol: as §1, §2

L. lactis = test: Controlling growth of contaminating L. lactis in a culture medium with a circular bacteriocin (Examples 5 and 6); format: cell-based
Source text: A polypeptide containing an amino acid sequence of a circular bacteriocin, for example Enterocin AS-48, flanked by a split intein is produced. The split intein is a conditionally active, pH-sensitive split intein, and is configured to circularize the bacteriocin when the pH is below 6.0. The polypeptide is introduced into a culture medium growing a microbial organism of interest, at pH 7.0. […] When a contaminating microbial species, L. lactis, is detected in the culture medium, the pH of the medium is reduced to below 6.0, which activates the split intein and causes the bacteriocin to circularize. Subsequently, the growth of the contaminating L. lactis in the culture medium is inhibited.
A microbial cell is genetically engineered with an expression vector encoding a circular bacteriocin, for example Leucocyclicin Q, flanked by a split intein. The genetically engineered microbial cell is introduced into a culture medium growing a microbial organism of interest. The microbial cell produces the bacteriocin in circularized form, and secretes it into the culture medium. Growth of a contaminating microbial species, L. lactis, is inhibited by the circular bacteriocin.

| Molecule | Antimicrobial activity, Indicator L. lactis IL1403 (L. lactis IL1403) | also measured |
| --- | --- | --- |
| Bacteriocin NCTC 12958: putative circular bacteriocin of Streptococcus thermophilus NCTC 12958; SEQ ID NO: 854 circularized with Npu split intein (SAGGSIVDAFAIIAGITLPAWVAPVLAGFGVVSAIYWICGKFGIRLAPGWYQDIVDFV; circularized via Npu split intein; Bacteriocin NCTC 12958; Strain NCTC 12958; listed as Streptococcus thermophilus) | + | – |
| Carnocyclin A (SLINAGLTVGSIISILGGVTVGLSGVFTAVKAAIAKQGIKKAIQLLVAYGIAQGTAEKVV; circularized via Npu split intein; Carnocyclin A; Strain UAL307; listed as Carnobacterium maltaromaticum) [circular bacteriocin of Carnobacterium maltaromaticum UAL307] | + | – |
| Garvicin ML (SGAFTAAGGIMALIKKYAQKKLWKQLIAALVATGMAAGVAKTIVNAVSAGMDIATALSLF; circularized via Npu split intein; Garvicin ML (GarML); Strain DCC43; listed as Lactococcus garvieae) [circular bacteriocin of Lactococcus garvieae DCC43] | + | – |
| Gassericin A (SGASLGTAFAAILGVTLPAWALAAAGALGATAAIYWIADQFGIHLATGTARKLLDAMA; circularized via Npu split intein; Strain LA39; Gassericin A (GasA); listed as Lactobacillus gasseri) [circular bacteriocin of Lactobacillus gasseri LA39] | + | Antimicrobial activity, Indicator P. pentosaceus HELA (P. pentosaceus HELA): +; Antimicrobial activity, Indicator L. inocua (L. inocua): + |
| Paracyclicin P (SAGGSLAGAFSVVAGVTLPAWIVPIATAFGAVSAIYFIANKLGIHLAPGWYQDMVNYV; circularized via Npu split intein; Paracyclicin P (ParP); subsp. Paracasei JCM 8130/ DSM 5622; listed as Lactobacillus paracesei) [circular bacteriocin of Lactobacillus paracasei JCM 8130/DSM 5622] | + | – |
| Plantaricyclin A (SLTQKALDLLSAGSSLGTVAAAVLGVTLPAWAVAAAGALGGTAAIVWIAKQFGVHLTT; circularized via Npu split intein; Plantaricyclin A (PlcA); Strain NI326; listed as Lactobacillus plantarum) [circular bacteriocin of Lactobacillus plantarum NI326] | + | – |
| Bacteriocin YS111: putative circular bacteriocin of Streptococcus suis YS111; SEQ ID NO: 828 circularized with Npu split intein (protein, listed as Streptococcus suis, circularized via Npu split intein; Strain YS111; Bacteriocin YS111) STVVNVILGAGTAVTILGIISSIASGGATTLLTVGWAGFKATVQRLAKQSMARAIAYVAAALGVPSAVA | + | – |
| Leucocyclicin Q (protein, circularized via Npu split intein; Strain TK41401; Leucocyclicin Q; Leuconostoc mesenteroides, circular bacteriocin of Leuconostoc mesenteroides TK41401) SKSLANTILGAIAVGNLASWLLALVPGPGWATKAALATAETIVKHEGKAAAIAWLVNQLGI | + | growth of contaminating L. lactis in culture medium (L. lactis; Example 6, bacteriocin secreted by genetically engineered microbial cell): inhibited |
| Bacteriocin 3688STDY6124959: putative circular bacteriocin of Staphylococcus aureus 3688STDY6124959; SEQ ID NO: 814 circularized with Npu split intein (protein, listed as Staphylococcus aureus, circularized via Npu split intein; Bacteriocin 3688STDY6124959; Strain 3688STDY6124959) STLGISSYAAKKAIDIIAAAGDVAAIVGLIGAVTGAGAIGAGILFTAKKLIKSYGKKYAAAWLT | + | – |
| Bacteriocin BCW 2997: putative circular bacteriocin of Listeria monocytogenes BCW 2997; SEQ ID NO: 818 circularized with Npu split intein (protein, circularized via Npu split intein; Strain BCW 2997; Bacteriocin BCW 2997; Listeria monocytogenes) SIKVYLKKQIKKKGRKAVIAWLAKEFGIPGGVAATVLNIVEAGGWATTILSILTAVGSGGLSLIAAAGKE | + | – |
| Uberolysin A (protein, listed as Streptococcus uberis, circularized via Npu split intein; Uberolysin A (UberA); Strain 42, circular bacteriocin of Streptococcus uberis 42) SGTAKKVVDAIDKGAAAFVIISIISTVISAGALGAVSASADFIILTVKNYISRNLKAQAVIWLAGYTGIA | – | Antimicrobial activity, Indicator L. inocua (L. inocua): + |
| Enterocin AS-48 (protein, listed as Enterococcus faecalis, circularized via Npu split intein; Enterocin AS-48 (EntAS48); Strain 48, circular bacteriocin of Enterococcus faecalis S-48) SIKAYLKKEIKKKGKRAVIAWMAKEFGIPAAVAGTVLNVVEAGGWVTTIVSILTAVGSGGLSLLAAAGRE | + | antimicrobial activity of non-circularized bacteriocin in culture medium (L. lactis; Example 5, pH-sensitive split intein, pH 7.0): does not exhibit antimicrobial activity; growth of contaminating L. lactis in culture medium (L. lactis; Example 5, pH-sensitive split intein, pH reduced to below 6.0): inhibited |
| DSM 15102: putative circular bacteriocin of Garciella nitratireducens DSM 15102; SEQ ID NO: 832 circularized with Npu split intein (protein, listed as Garciella nitratireducens, circularized via Npu split intein; Bacteriocin DSM 15102; Strain DSM 15102) SMLGISTVAAKKVIDIIDTASTVATIISLIGVIVGVGGITAGLVTTAKAMIKKYGKKYATMWLA | + | – |
| Enterocin NKR-5-3B (protein, listed as Enterococcus faecium, circularized via Npu split intein; Strain NKR-5-3; Enterocin NKR-5-3B, circular bacteriocin of Enterococcus faecium NKR-5-3) SSYAAKKVIDIINTGSAVATIIALVTAVVGGGLITAGIVATAKSLIKKYGAKYAAAWLTANLGI | + | Antimicrobial activity, Indicator L. inocua (L. inocua): + |
| Amylocyclicin (protein, listed as Bacillus amyloliquefaciens, circularized via Npu split intein; Strain FZB42; Amylocyclicin (Alc), circular bacteriocin of Bacillus amyloliquefaciens FZB42) STAAAKKAIDIIDAASTIASIISLIGIVTGAGAISYAIVATAKTMIKKYGKKYAAAWLASTLGI | + | – |
| Circularin A (protein, listed as Clostridium beijerinckii, circularized via Npu split intein; Circularin A (CirA); ATCC 25752, circular bacteriocin of Clostridium beijerinckii ATCC 25752) SIASGGAGTLMTIGWATFKATVQKLAKQSMARAIAYVAGALGVQTAAATTIVNVILNAGTLVTVLGIIA | + | – |
